From article PMC3463765
“And” between values parts separate entries of the source, which are not always exact repeats. Equal entries are not always repeated.

Tests used:
[1] = biological target: horse serum butyrylcholinesterase (horse); assay: native gel or EMSA
[2] = biological target: horse serum butyrylcholinesterase (horse); assay: native gel or EMSA; remark: listed apart in the source
[3] = biological target: horse serum butyrylcholinesterase (horse); assay: SDS-PAGE without reducing agent

## horse serum butyrylcholinesterase (enzyme)
[1]
  stoichiometry N: 2 and 4
[2]
  stoichiometry N: 4
[3]
  stoichiometry N: 2
